The target in this assay is IgE antibodies in four Pru p 7 reactive human sera. As to the kind of experiment: ImmunoCAP IgE inhibition, inhibitor in solution at 20 ug/mL, rPru p 7 on solid phase.

B1: recombinant Cup s GRPb (protein)
chain: AQIDCDKECNRRCSKASLHDRCLKYCGICCEKCHCVPPGTAGNEDVCPCYAHLKNSKGGHKCP
In the case of B1, the percent inhibition of IgE binding to rPru p 7 (fourth serum) was 80%.
